Target: T1, RIIα isoform of PKA (regulatory subunit) (Mus musculus, UniProt P12367)
T1 construct: made in house; host or cells: E. coli BL21 (DE3)
Assay: Surface plasmon resonance binding of D-AKAP2 to immobilized RIIα (BIAcore 3000)
Parameters: species or system murine
Details: 1:1 binding model, average of three replicates, read-out: Kd (dissociation constant)
Procedure: FIG. 2 depicts the binding of D-AKAP2 to the regulatory subunit (RIIα) of PKA as determined using surface plasmon resonance. A total of 450 response units of RIIα were immobilized to a cAMP sensor chip. Serial dilutions (250-2 nM) of D-AKAP2 were injected over the surface. Both the one rate (kon) and the off rate (koff) were fit globally using the concentration series. A 1:1 binding model fits the data well and is illustrated as a bold line.
Binding of RIIa to D-AKAP2 was performed using a BIAcore 3000 (BIAcore). The regulatory subunit of PKA was immobilized to a CM5 chip (BIAcore) as described (Herberg et al., J. Mol. Biol., 298:329-339, 2000). […]
To evaluate the functional properties of this protein, binding of D-AKAP2 to the RIIα isoform of PKA was examined using surface plasmon resonance (Herberg et al., J. Mol. Biol. 298:329-339, 2000). […] D-AKAP2 was injected over the surface at varying concentrations and the affinity determined by fitting the curves to a 1:1 binding model (see FIG. 2).

T1 sequence (P12367 whole entry, canonical isoform): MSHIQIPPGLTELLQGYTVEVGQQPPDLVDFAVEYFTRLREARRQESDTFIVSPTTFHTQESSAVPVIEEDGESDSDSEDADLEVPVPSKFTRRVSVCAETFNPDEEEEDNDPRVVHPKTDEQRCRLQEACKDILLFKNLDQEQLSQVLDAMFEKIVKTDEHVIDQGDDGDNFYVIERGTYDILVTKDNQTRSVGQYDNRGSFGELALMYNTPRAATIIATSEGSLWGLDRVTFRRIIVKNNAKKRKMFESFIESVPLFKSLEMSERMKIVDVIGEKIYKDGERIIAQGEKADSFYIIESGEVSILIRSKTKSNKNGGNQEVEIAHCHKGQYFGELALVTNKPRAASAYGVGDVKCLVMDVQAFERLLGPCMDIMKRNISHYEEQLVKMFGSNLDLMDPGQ

In the case of “AKB domain alone: PKA kinase binding (AKB) domain of D-AKAP2 (residues 336-360), tested alone without the rest of the protein (DPNCFVLAQAVVFSAMEQEHFSEFL; UniProt O88845 336-360, looked up, fragment)”, the Kd is reported as 2 nM.

— patent publication US20050233406A1, “Methods for high resolution identification of solvent accessible amide hydrogens in polypeptides and for characterization of polypeptide structure” (priority 2002, published 2005)
